Results on five molecules are retold here after paper PMC10746276, “CsrA coordinates the expression of ribosome hibernation and anti-σ factor proteins”.

Data set [1] deals with T1, CsrA-His6 (Escherichia coli, UniProt P69913 1-61). Put plainly: EMSA; Hill coefficient 4.5; EMSA: 0.1 nM RNA, 10 mM MgCl2, 100 mM KCl, 32.5 ng yeast RNA, 20 mM DTT, 7.5% glycerol, 4 U SUPERasin, 30 min 37 C (pH not given); footprint: 2 nM RNA, 10 mM Tris-HCl pH 7.5, 10 mM MgCl2, 100 mM KCl, yeast RNA, acetylated BSA, 37 C. Conditions: protein: recombinant; tags: His6 (C-terminal by name); chain copies: 2; label: 5'-32P; hairpin (mFold).
T1 sequence (P69913 whole entry): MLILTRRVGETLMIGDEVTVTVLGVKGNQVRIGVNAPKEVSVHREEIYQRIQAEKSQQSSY

Data set [2] deals with T1, CsrA-His6. Kind of data set: EMSA; EMSA: 0.1 nM RNA, 10 mM MgCl2, 100 mM KCl, 32.5 ng yeast RNA, 20 mM DTT, 7.5% glycerol, 4 U SUPERasin, 30 min 37 C (pH not given); footprint: 2 nM RNA, 10 mM Tris-HCl pH 7.5, 10 mM MgCl2, 100 mM KCl, yeast RNA, acetylated BSA, 37 C. As to conditions: protein: recombinant; tags: His6 (C-terminal by name); chain copies: 2; label: 5'-32P.
The target of data set [3] is T1, CsrA-His6. Kind of data set: EMSA; side-by-side with A(-15)G; differs from 95 nM in Fig. 6, RNA may differ; EMSA: 0.1 nM RNA, 10 mM MgCl2, 100 mM KCl, 32.5 ng yeast RNA, 20 mM DTT, 7.5% glycerol, 4 U SUPERasin, 30 min 37 C (pH not given); footprint: 2 nM RNA, 10 mM Tris-HCl pH 7.5, 10 mM MgCl2, 100 mM KCl, yeast RNA, acetylated BSA, 37 C. As to conditions: protein: recombinant; tags: His6 (C-terminal by name); chain copies: 2; label: 5'-32P.

For data set [4], the target named is T1, CsrA-His6. Kind of data set: EMSA; no effect on affinity vs WT; EMSA: 0.1 nM RNA, 10 mM MgCl2, 100 mM KCl, 32.5 ng yeast RNA, 20 mM DTT, 7.5% glycerol, 4 U SUPERasin, 30 min 37 C (pH not given); footprint: 2 nM RNA, 10 mM Tris-HCl pH 7.5, 10 mM MgCl2, 100 mM KCl, yeast RNA, acetylated BSA, 37 C. As to conditions: protein: recombinant; tags: His6 (C-terminal by name); chain copies: 2; label: 5'-32P.

Positions count from the first letter of the chain named.

B1: yqjD BS2-BS3 fragment WT (structured_RNA)
RNA: GCGCAGGAAGAGCUGAAAAAGCUGGAAGCGC
B1: the Kd in the data set with CsrA-His6 [1] was 89 ± 6 nM.

B2: elaB leader GGA to CCA (ssRNA)
RNA: GGGUUUUACGCAAAUCCAGAACGAGAAUGUCUAAUCAG
B2: the binding result with CsrA-His6 [2] was “no binding”.

B3: elaB leader WT (ssRNA)
RNA: B2 RNA with C16G, C17G
Consider B3, for which the Kd with CsrA-His6 [2] was found to be 20 ± 8 nM.

B4: yqjC leader WT (ssRNA)
RNA: GGGCGGUGGUUAACACUACCGCUUCGUUGUCUGGACAAUCGUUCCUUUGUAAUAGGUCCGAAUCACAAUGGAAGGUUCAAGAAUGAAAUACCGCAUCGCUUUAGCUGUU
Take B4: the Kd in the data set with CsrA-His6 [3] is 15 ± 9 nM; with CsrA-His6 [2], 95 ± 7 nM.

B5: yqjC leader GGA1 mutant (GGA to AAA) (ssRNA)
RNA: B4 RNA with G33A, G34A
For B5, the binding result with CsrA-His6 [4] is “binds”.
